# Reference: patent publication US9587002B2, “Sequence of nucleotides and peptides GSE 24.2 of dyskerin, which can induce telomerase activity, method for obtaining same, therapeutic compositions and applications thereof” (CONSEJO SUPERIOR DE INVESTIGACIONES CIENTIFICAS, priority 2005, dated 2017)
# B1: GSE 24.2: 165-pb cDNA fragment (nucleotides 268 to 433) of human dyskerin, SEQ ID NO1, encoding peptide SEQ ID NO2, expressed from pLNCX plasmid (nucleic acid, listed as Homo sapiens)
# DNA: GGTTTCATTAATCTTGACAAGCCCTCTAACCCCTCTTCCCATGAGGTGGTAGCCTGGATTCGACGGATACTTCGGGTGGAGAAGACAGGGCACAGTGGTACTCTGGATCCCAAGGTGACTGGTTGTTTAATCGTGTGCATAGAACGAGCCACTCGCTTGGTGAAG
# modifications: expressed from pLNCX plasmid; CDS (1)..(165) Sequence GSE 24.2
# Test system: c-MYC promoter
# Test: c-MYC-luc reporter (px3.2) luciferase assay in 293T cells
# Format: cell-based, human
# Protocol: FIG. 12.—The promoter activity of c-MYC is induced by the GSE 24.2 peptide. A) Schematic representation of the c-MYC promoter, indicating the different constructs used in the experiments. B) 293T cells were co-transfected with the specified plasmids (10 μg/DNA per million cells) and with the px3.2 c-MYC-luc reporter (1 μg per million cells). C) The specified cell lines were transfected with the px3.2 c-MYC-luc reporter (1 μg per million cells). D) The specified cell lines were transfected with the different constructs of the c-MYC-luc reporter (1 μg per million cells). After 24 hours of transfection, the luciferase activity was analysed as specified above. CMV-Renilla (0.1 μg/ml per million cells) was used as a control for the transfection efficiency. The data represent the mean of two experiments performed in quadruplicate.
# FIG. 13.—The activity of the c-MYC promoter induced by the GSE 24.2 peptide is dependent on the NHE III element. A) Schematic representation of the mutations generated in the NHE III element, px3.2 (SEQ ID NO: 21), px3.2 G12A (SEQ ID NO: 22), px3.2 G17A (SEQ ID NO: 23), and px3.2 G26T/G27T (SEQ ID NO: 24). B) The 293T cells were co-transfected with different constructs (10 μg/DNA per million cells) and with the different mutants of the px3.2 reporter plasmid (1 μg per million cells). C) The cell lines specified in the figure were transfected with the different mutants of the px3.2 reporter (1 μg per million cells). After 24 h of transfection, the luciferase activity was analysed as specified above. CMV-Renilla (0.1 μg/ml per million cells) was used as a control for the transfection efficiency. The data represent the mean of two experiments performed in quadruplicate.
# The transcription of the c-myc gene is controlled by two different promoters and it seems to be repressed by a domain hypersensitive to DNase located between the P0 and P1 promoters (NHEIII). Thus, four different constructs were used that contained 3.2 kb of the transcription initiation point of c-myc bound to the luciferase gene (FIG. 12a).
# This transcription factor, c-myc, should therefore activate the transcription of hTERT. Thus, three mutants deleted in the c-myc promoter were used to define the necessary region for the GSE 24.2 peptide to perform its inducing activity.
# Since the NHEIII region has been described as an inhibitor of the transcription of c-myc, several mutants of the NHEIII region were constructed by Guanine modification of the purine-rich region. The 27 Guanines present in the NHEIII region are involved in maintaining the secondary structure of the G-quadruplexes of the purine-rich region (Pu27). The following were mutated: G12A, located on the second guanine of the second quartet; G17A, on the second triplet of Guanines; and, finally, two consecutive Guanines (G26A/G27A) at the end of the purine-rich region (FIG. 13a). These promoter construct were transfected in cells that express, either the empty vector, or the vectors containing the DKC protein or the GSE 24.2 peptide.
# Directed mutagenesis. The specific mutations of guanine in the NHEIII region of the c-myc gene promoter, px3.2, were performed using the Quickchange X-L directed mutagenesis kit (Strategene) in accordance with the manufacturer's instructions.
molecule,measurement,setting,value
B1,"c-myc promoter (px3.2myc) activity, transient co-transfection","293T cells, GSE 24.2 plasmid vs pLNCX jointly with px3.2myc reporter",A similar result was obtained
same,transcription from deletion mutants of the c-myc promoter,"GSE 24.2 cells vs control cells, three deleted mutants","only those contained in the distal region of promoters P1 and P0, which include the NHEIII domain, were capable of maintaining the transcription"
same,activation of WT px3.2 myc promoter,"cells expressing empty vector, DKC or GSE 24.2","only the WT px3,2 myc promoter was capable of being activated"
same,activation of Pu27 (NHEIII) mutant c-myc promoters,"mutants G12A, G17A, G26A/G27A",at very low levels
same,"c-myc promoter (px3.2myc) activity, GSE 24.2 cells vs control cells",stable cell lines transfected with px3.2myc,three-fold increase in activity
